Source: patent US20230144436A1, “MUSCLE TARGETING COMPLEXES AND USES THEREOF FOR TREATING MYOTONIC DYSTROPHY” (Dyne Therapeutics, Inc., priority 2020, published 2023)
Where a chain is given by its changes, count along the chain named.

B1: 3-M12 (antibody, V domains shown)
VH: DVQLQESGPGLVKPSQSLSLTCSVTGYSITSGYYWNWIRQFPGNKLEWMGYITFDGANNYNPSLKNRISITRDTSKNQFFLKLTSVTTEDTATYYCTRSSYDYDVLDYWGQGTTLTVSS
VL: DIQMTQTTSSLSASLGDRVTISCRASQDISNFLNWYQQRPDGTVKLLIYYTSRLHSGVPSRFSGSGSGTDFSLTVSNLEQEDIATYFCQQGHTLPYTFGGGTKLEIK
B2: 2-H19 (antibody, V domains shown)
VH: EVQLQQSGAELVRSGASVKLSCTASGFNIKDYYMHWVKQRPEQGLEWIGWIDPESGDTEYAPKFQGRATMTADTSSNTAYMQLSSLTSEDTAVYYCYGHDYRVDCWGQGTSVTVSS
VL: DVVMTQTPLSLPVSLGDQASISCRSSQSLVHSNGNTYLHWYLQKPGQSPKLLIYKVSNRFSGVPDRFSGSGSGTDFTLKISRVEAEDLGVYFCSQSTHIPWTFGGGTKLEIK
B3: 9-K23 (antibody, V domains shown)
VH: QVTLKESGPGMLQPSQTLSLTCSFSGFSLNTYDVGVGWIRQPSGKGLEWLANIWWNDDKYYNSALKSRLTISKDTSNNQVFLKISSVDTADTATYYCTLYSYDGGFAYWGQGTLVTVSA
VL: QIVLTQSPAIMSASLGERVTMTCTASSSVSSSYLHWYQQKPGSSPKLWIYSTSNLASGVPARFSGSGSGTSYSLTISSMEAEDAATYYCHQYHRSPYTFGGGTKLEIK
B4: 8-O17 (antibody, V domains shown)
VH: QVQLKESGPGLVAPSQSLSITCTVSGFSLTNYGVHWVRQPPGKGLEWLVVIWNDGSATYNSALESRLSISKDNSKSQVFLKMNSLQTDDTAMYYCARHESSNPFAYWGQGTLVTVSA
VL: DILLTQSPAILSVSPGERVSFSCRASQSIGTSIHWYQQRTNGSPRLLIKSASESIAGIPSRFSGSGSGTDFTLSINSVESEDIADYYCQQNNRWPYTFGGGTKLEIK
B5: 4-J22 (antibody, V domains shown)
VH: EVQLQQSGAELVRSGASVKLSCTASGFNIKDYYIHWVKQRPEQGLEWIGWIDPENADTEYAPKFQGKATMTPDTSSNTAYLQLSSLTSEDTAVYYCYAWDYSMDYWGQGTSVTVSS
VL: B2 VL with P12S, T77I, S96N, I99V, W101Y, K108R
B6: 10-H2 (antibody, V domains shown)
VH: EVQLVESGGDLVKPGGSLKLSCAASGFTFSDYGMHWVRQGPEKGLEWVAYINSGSSTIYYADTVKGRFTISRDNAKNTLFLQMTSLRSEDTAMYYCARPGDYDNYAMDYWGQGTSVTVSS
VL: DIVMTQSHKFLSTSVGDRVSITCKASQDVSVAVAWYQQKPGQSPKLLIYWAYTRHTGVPDRFTGSGSGTEYTLTISSVQAEDLALYYCQQHYNTPPWTFGGGTKLEIK

These molecules were tested against hTfR1 (Homo sapiens, UniProt P02786) (assay: Binding kinetics of anti-TfR1 antibodies on Carterra LSA, hTfR1). Details: Carterra LSA at 25 C.
Chain of hTfR1 (P02786 whole entry): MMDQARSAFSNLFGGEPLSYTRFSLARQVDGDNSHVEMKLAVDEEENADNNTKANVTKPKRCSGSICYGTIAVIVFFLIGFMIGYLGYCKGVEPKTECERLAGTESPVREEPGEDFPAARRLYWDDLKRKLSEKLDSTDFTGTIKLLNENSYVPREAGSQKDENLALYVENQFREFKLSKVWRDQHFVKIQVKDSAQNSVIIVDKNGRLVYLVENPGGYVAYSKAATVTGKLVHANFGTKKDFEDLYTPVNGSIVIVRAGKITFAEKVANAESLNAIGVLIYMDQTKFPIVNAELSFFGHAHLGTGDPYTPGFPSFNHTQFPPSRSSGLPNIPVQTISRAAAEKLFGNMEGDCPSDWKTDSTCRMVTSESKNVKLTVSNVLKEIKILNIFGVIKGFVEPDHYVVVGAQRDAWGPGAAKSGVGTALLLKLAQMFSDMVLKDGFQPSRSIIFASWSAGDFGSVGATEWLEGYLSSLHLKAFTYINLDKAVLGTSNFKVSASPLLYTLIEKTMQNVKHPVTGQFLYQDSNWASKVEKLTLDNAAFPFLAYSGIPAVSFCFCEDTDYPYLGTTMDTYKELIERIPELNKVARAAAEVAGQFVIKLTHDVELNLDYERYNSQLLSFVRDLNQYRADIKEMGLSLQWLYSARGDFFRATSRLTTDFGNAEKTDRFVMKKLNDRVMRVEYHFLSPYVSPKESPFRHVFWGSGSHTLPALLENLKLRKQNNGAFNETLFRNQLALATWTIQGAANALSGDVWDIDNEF
Method: Selected anti-TfR1 antibodies were tested for their binding affinity to human TfR1 for measurement of Ka (association rate constant), Kd (dissociation rate constant), and KD (affinity). […] The binding experiment was performed on Carterra LSA at 25 C. An anti-mouse IgG and anti-human IgG antibody “lawn” was prepared on a HC30M chip by amine coupling. 59 IgGs (58 mouse mAbs and 1 human mAb) were captured on the chip. Dilution series of hTfR1, cyTfR1, and hTfR2 were injected to the chip for binding (starting from 1000 nM, 1:3 dilution, 8 concentrations).
Binding data were referenced by subtracting the responses from a buffer analyte injection and globally fitting to a 1:1 Langmuir binding model for estimate of Ka (association rate constant), Kd (dissociation rate constant), and KD (affinity) using the Carterra™ Kinetics software. 5-6 concentrations were used for curve fitting.
For B1, the “dissociation rate constant (koff)” value was 127 µM. With B2 the “dissociation rate constant (koff)” value was 456 µM. With B3 the “dissociation rate constant (koff)” value was 21.7 µM. B4 was tested, and the “dissociation rate constant (koff)” value was 91.2 µM.

What follows are molecules tested on DMPK (assay: DMPK knockdown by anti-TfR1 antibody-oligonucleotide conjugates in NHP myotubes). Details: conjugate with control DMPK-ASO, 72 hours, concentration not stated (0.5, 5, 50 nM tested).
Assay type: cell-based, non-human primate
Method: (§1) The purified complexes were then tested for cellular internalization and inhibition of the target gene, DMPK. Non-human primate (NHP) or DM1 (donated by DM1 patients) cells were grown in 96-well plates and differentiated into myotubes for 7 days. Cells were then treated with escalating concentrations (0.5 nM, 5 nM, 50 nM) of each complex for 72 hours. Cells were harvested, RNA was isolated, and reverse transcription was performed to generate cDNA. qPCR was performed using TaqMan kits specific for Ppib (control) and DMPK on the QuantStudio 7. The relative amounts of remaining DMPK transcript in treated vs non-treated cells was were calculated and the results are shown in Table 14 and FIG. 20.
as §1, with “of” for “of the target gene,”, “in” for “in Table 14 and”, “23.” for “20.”
With B1 the “% knockdown of DMPK in NHP cells using Antibody-DMPK ASO conjugate” value (from here on “% knockdown of DMPK in NHP cells”) was 77%. B2 was tested, and the “% knockdown of DMPK in NHP cells” value was 39%. For B5, the “% knockdown of DMPK in NHP cells” value was 7%. For B3, the “% knockdown of DMPK in NHP cells” value was 47%. With B4 the “% knockdown of DMPK in NHP cells” value was 26%. For B6, the “% knockdown of DMPK in NHP cells” value was 2%.

The molecules below were run on DMPK (assay: DMPK knockdown by anti-TfR1 antibody-oligonucleotide conjugates in DM1 patient myotubes). Details: DM1 patient myotubes, conjugate with control DMPK-ASO, 72 hours; concentration not stated (0.5, 5, 50 nM tested).
Assay type: cell-based, human
Method: as §1
as §1, with “of” for “of the target gene,”, “in” for “in Table 14 and”, “23.” for “20.”
B1 was tested, and the “% knockdown of DMPK in cells from human DM1 patients using Antibody-DMPK ASO conjugate” value (“% knockdown of DMPK in cells” below) was 52%. B2 was tested, and the “% knockdown of DMPK in cells” value was 24%. B5 was tested, and the “% knockdown of DMPK in cells” value was 57%. With B3 the “% knockdown of DMPK in cells” value was −4%. B4 was tested, and the “% knockdown of DMPK in cells” value was 41%. In the case of B6, the “% knockdown of DMPK in cells” value is reported as 16%.

Same assay, conditions: conjugates with control DMPK-ASO, in either cyno cells or human DM1 patient cells
In the case of B1, the “activity in delivering a payload (DMPK ASO) and achieving DMPK knockdown compared to the control antibody 15G11” value is reported as “superior activity”.
